We go through two molecules from patent US20180055923A1 (WASHINGTON UNIVERSITY, published 2018).

For this experiment, the target named is T1, human fibrinogen free from plasminogen and von Willebrand factor (Enzyme Research Laboratory) (human, UniProt P02671 20-629; P02675 31-491; P02679 27-437).
T1 construct: It was bought as purified protein and coated on plates; also called Fg; immobilized human fibrinogen
T1 sequence 1: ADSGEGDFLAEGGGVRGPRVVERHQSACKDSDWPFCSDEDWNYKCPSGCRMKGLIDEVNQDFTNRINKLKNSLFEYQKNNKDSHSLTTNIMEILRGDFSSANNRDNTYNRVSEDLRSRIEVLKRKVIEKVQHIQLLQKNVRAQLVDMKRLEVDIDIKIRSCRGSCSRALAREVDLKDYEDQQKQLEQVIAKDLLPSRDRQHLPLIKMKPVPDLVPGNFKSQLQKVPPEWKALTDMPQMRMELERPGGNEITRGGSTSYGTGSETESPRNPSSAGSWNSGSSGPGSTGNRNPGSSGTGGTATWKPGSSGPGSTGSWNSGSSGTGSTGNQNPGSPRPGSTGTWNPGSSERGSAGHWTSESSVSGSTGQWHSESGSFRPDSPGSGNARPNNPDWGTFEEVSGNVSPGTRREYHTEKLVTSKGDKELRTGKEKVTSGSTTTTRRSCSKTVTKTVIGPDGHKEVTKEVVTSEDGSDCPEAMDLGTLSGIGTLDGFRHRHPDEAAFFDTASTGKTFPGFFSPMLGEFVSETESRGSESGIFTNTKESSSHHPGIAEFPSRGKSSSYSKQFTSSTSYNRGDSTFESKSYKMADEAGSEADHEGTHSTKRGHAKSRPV
T1 sequence 2: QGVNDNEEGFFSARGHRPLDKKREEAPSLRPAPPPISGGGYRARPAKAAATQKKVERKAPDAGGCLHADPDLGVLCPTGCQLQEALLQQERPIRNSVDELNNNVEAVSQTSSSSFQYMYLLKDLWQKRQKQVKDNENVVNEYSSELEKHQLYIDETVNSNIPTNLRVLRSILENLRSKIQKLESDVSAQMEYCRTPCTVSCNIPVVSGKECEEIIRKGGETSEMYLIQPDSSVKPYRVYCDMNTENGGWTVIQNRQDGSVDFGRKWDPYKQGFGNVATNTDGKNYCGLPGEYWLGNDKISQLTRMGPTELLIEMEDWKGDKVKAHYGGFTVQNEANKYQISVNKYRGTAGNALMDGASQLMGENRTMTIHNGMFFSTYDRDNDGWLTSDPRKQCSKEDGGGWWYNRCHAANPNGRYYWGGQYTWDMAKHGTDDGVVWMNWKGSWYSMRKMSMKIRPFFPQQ
T1 sequence 3: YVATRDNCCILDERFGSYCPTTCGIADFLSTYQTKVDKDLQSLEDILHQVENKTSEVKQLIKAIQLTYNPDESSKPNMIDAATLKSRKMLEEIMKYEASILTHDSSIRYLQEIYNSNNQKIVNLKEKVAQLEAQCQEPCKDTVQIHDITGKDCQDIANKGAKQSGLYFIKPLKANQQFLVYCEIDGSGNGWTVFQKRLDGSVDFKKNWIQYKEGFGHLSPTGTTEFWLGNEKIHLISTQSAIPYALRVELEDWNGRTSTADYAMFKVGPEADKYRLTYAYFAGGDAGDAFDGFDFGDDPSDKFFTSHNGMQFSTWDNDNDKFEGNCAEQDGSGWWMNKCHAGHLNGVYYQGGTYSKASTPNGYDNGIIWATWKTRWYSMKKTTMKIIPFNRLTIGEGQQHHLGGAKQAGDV
Briefly: ELISA, purified protein on immobilized human fibrinogen, detected with mouse anti-EbpA^Full.

B1: 6xHis-EbpA^NTD (N-terminal domain of EbpA, residues 115 to 577) (other)
chain: PEKITVPENTKETNKNDSAPEKTEQPTATEEVTNPFAEARMAPATLRANLALPLIAPQYTTDNSGTYPTANWQPTGNQNVLNHQGNKDGSAQWDGQTSWNGDPTNRTNSYIEYGGTGDQADYAIRKYARETTTPGLFDVYLNVRGNVQKEITPLDLVLVVDWSGSMNENNRIGEVQKGVNRFVDTLADSGITNNINMGYVGYSSDGYNNNAIQMGPFDTVKNPIKNITPSSTRGGTFTQKALRDAGDMLATPNGHKKVIVLLTDGVPTFSYKVSRVQTEADGRFYGTQFTNRQDQPGSTSYISGSYNAPDQNNINKRINSTFIATIGEAMALKQRGIEIHGLGIQLQSDPRANLSKQQVEDKMREMVSADENGDLYYESADYAPDISDYLAKKAVQISGTVVNGKVVDPIAEPFKYEPNTLSMKSVGPVQVQTLPEVSLTGATINSNEIYLGKGQEIQIHYQV
notes: not shown: N-terminal 6xHis tag from vector pQE-30Xa
Turning to B1, the binding result is “binds”.

B2: 6xHis-EbpA^CTD (C-terminal domain of EbpA, residues 594 to 1077) (other)
chain: MNGRTTQPLATAPEKVDFGVPSGKAPGVKLNVKKIWEEYDQDPTSRPDNVIYEISRKQVTDTANWQTGYIKLSKPENDTSNSWERKNVTQLSKTADESYQEVLGLPQYNNQGQAFNYQTTRELAVPGYSQEKIDDTTWKNTKQFKPLDLKVIKNSSSGEKNLVGAVFELSGKNVQTTLVDNKDGSYSLPKDVRLQKGERYTLTEVKAPAGHELGKKTTWQIEVSEQGKVSIDGQEVTTTNQVIPLEIENKFSSLPIRIRKYTMQNGKQVNLAEATFALQRKNAQGSYQTVATQKTDTTGLSYFKISEPGEYRMVEQSGPLGYDTLAGNYEFTVDKYGKIHYAGKNIEENAPEWTLTHQNNLKPFDLTVHKKADNQTPLKGAKFRLTGPDTDIELPKDGKETDTFVFENLKPGKYVLTETFTPEGYQGLKEPIELIIREDGSVTIDGEKVADVLISGEKNNQITLDVTNQAKVPLPETGGIGRLW
notes: Plasmid pSJH-541; not shown: N-terminal 6xHis tag from vector pQE-30Xa
Take B2: the binding result is recorded as “no binding”.
